The text below walks through data of patent US20240294569A1, “MODULATORS OF SORTILIN ACTIVITY” (Insusense ApS, priority 2021, published 2024).

As a reminder, the IC50 is the midpoint of a concentration-inhibition curve. A high value points to weaker potency.

The assay addresses 6his-Sortilin (human) (UniProt Q99523). Description: SPA, displacement of [3H]-neurotensin from 6his-Sortilin. (Displacement assays read how much labelled ligand stays bound in the presence of the test substance.)
For the substance “(S)-2-((2S,3S)-2-((S)-3-(4-Hydroxyphenyl)-2-((R)-piperazine-2-carboxamido)propanamido)-3-methylpentanamido)-5,5-dimethylhexanoic acid (peptide)”, the IC50 was determined as 110 nM. Turning to “(S)-2-((S)-2-((S)-3-(4-Hydroxyphenyl)-2-((S)-pyrrolidine-2-carboxamido)propanamido)-3-(thiophen-3-yl)propanamido)-5,5-dimethylhexanoic acid (peptide)”, the IC50 was found to be 140 nM. As for “(S)-2-((2S,3S)-2-((S)-3-(4-Hydroxyphenyl)-2-((S)-piperazine-2-carboxamido)propanamido)-3-methylpentanamido)-5,5-dimethylhexanoic acid (peptide)”, the IC50 came out at 100 nM. Regarding “(S)-2-((S)-2-((S)-3-(4-Hydroxyphenyl)-2-((S)-pyrrolidine-2-carboxamido)propanamido)-3-(pyridin-3-yl)propanamido)-5,5-dimethylhexanoic acid (peptide)”, the IC50 came to 90 nM. In turn, “(S)-2-((S)-2-((S)-3-(4-Hydroxyphenyl)-2-((S)-pyrrolidine-2-carboxamido)propanamido)-3-(1H-indol-3-yl)propanamido)-5,5-dimethylhexanoic acid (peptide)” displayed an IC50 of 60 nM.

In turn, “(S)-2-((S)-2-((S)-3-(4-Hydroxyphenyl)-2-((S)-pyrrolidine-2-carboxamido)propanamido)-3-(1-methyl-1H-imidazol-5-yl)propanamido)-5,5-dimethylhexanoic acid.di-formic acid (peptide)” came in with an IC50 of 100 nM.
